No end group written: not given here. *: point of attachment. Biotin = O=C1N[C@H]2[C@H](CS[C@H]2CCCCC(=O)*)N1
Experiments:
asyn_113-127 [1] = biological target: T1, asyn_113-127 (human); experiment: Ala-scan peptide ELISA, row B, run 1
T1 construct: also called pep1
T1 peptide: Biotin-LEDMPVDPDNEAYEM

asyn_113-127_113A [2] = biological target: T2, asyn_113-127_113A (human); experiment: Ala-scan peptide ELISA, row B, run 1
T2 construct: substitution is already in the entry; also called pep2
T2 peptide: Biotin-AEDMPVDPDNEAYEM

asyn_113-127_114A [3] = biological target: T3, asyn_113-127_114A (human); experiment: Ala-scan peptide ELISA, row B, run 1
T3 construct: substitution is already in the entry; also called pep3
T3 peptide: Biotin-LADMPVDPDNEAYEM

asyn_113-127_115A [4] = biological target: T4, asyn_113-127_115A (human); experiment: Ala-scan peptide ELISA, row B, run 1
T4 construct: substitution is already in the entry; also called pep4
T4 peptide: Biotin-LEAMPVDPDNEAYEM

asyn_113-127_118A [5] = biological target: T5, asyn_113-127_118A (human); experiment: Ala-scan peptide ELISA, row B, run 1
T5 construct: substitution is already in the entry; also called pep7
T5 peptide: Biotin-LEDMPADPDNEAYEM

asyn_113-127_119A [6] = biological target: T6, asyn_113-127_119A (human); experiment: Ala-scan peptide ELISA, row B, run 1
T6 construct: substitution is already in the entry; also called pep8
T6 peptide: Biotin-LEDMPVAPDNEAYEM

asyn_113-127_125A [7] = biological target: T7, asyn_113-127_125A (human); experiment: Ala-scan peptide ELISA, row B, run 1
T7 construct: substitution is already in the entry; also called pep15
T7 peptide: Biotin-LEDMPVDPDNEAAEM

asyn_113-127_126A [8] = biological target: T8, asyn_113-127_126A (human); experiment: Ala-scan peptide ELISA, row B, run 1
T8 construct: substitution is already in the entry; also called pep16
T8 peptide: Biotin-LEDMPVDPDNEAYAM

[9] = biological target: T9, biotinylated human alpha-synuclein (human, UniProt P37840 1-140); experiment: Ala-scan peptide ELISA, row B, run 1
asyn_113-127 [10] = biological target: T1, asyn_113-127; experiment: Ala-scan peptide ELISA, row G, run 2
asyn_113-127_115A [11] = biological target: T4, asyn_113-127_115A; experiment: Ala-scan peptide ELISA, row G, run 2
asyn_113-127_117A [12] = biological target: T10, asyn_113-127_117A (human); experiment: Ala-scan peptide ELISA, row G, run 2
T10 construct: substitution is already in the entry; also called pep6
T10 peptide: Biotin-LEDMAVDPDNEAYEM

asyn_113-127_118A [13] = biological target: T5, asyn_113-127_118A; experiment: Ala-scan peptide ELISA, row G, run 2
asyn_113-127_120A [14] = biological target: T11, asyn_113-127_120A (human); experiment: Ala-scan peptide ELISA, row G, run 2
T11 construct: substitution is already in the entry; also called pep9
T11 peptide: Biotin-LEDMPVDADNEAYEM

asyn_113-127_122A [15] = biological target: T12, asyn_113-127_122A (human); experiment: Ala-scan peptide ELISA, row G, run 2
T12 construct: substitution is already in the entry; also called pep11
T12 peptide: Biotin-LEDMPVDPDAEAYEM

asyn_113-127_123A [16] = biological target: T13, asyn_113-127_123A (human); experiment: Ala-scan peptide ELISA, row G, run 2
T13 construct: substitution is already in the entry; also called pep12
T13 peptide: Biotin-LEDMPVDPDNAAYEM

asyn_113-127_126A [17] = biological target: T8, asyn_113-127_126A; experiment: Ala-scan peptide ELISA, row G, run 2
[18] = biological target: T9, biotinylated human alpha-synuclein; experiment: Ala-scan peptide ELISA, row G, run 2
asyn_113-127 [19] = biological target: T1, asyn_113-127; experiment: Ala-scan peptide ELISA, row H, run 2
asyn_113-127_113A [20] = biological target: T2, asyn_113-127_113A; experiment: Ala-scan peptide ELISA, row H, run 2
asyn_113-127_114A [21] = biological target: T3, asyn_113-127_114A; experiment: Ala-scan peptide ELISA, row H, run 2
asyn_113-127_115A [22] = biological target: T4, asyn_113-127_115A; experiment: Ala-scan peptide ELISA, row H, run 2
asyn_113-127_116A = biological target: T14, asyn_113-127_116A (human); experiment: Ala-scan peptide ELISA, row H, run 2
T14 construct: substitution is already in the entry; also called pep5
T14 peptide: Biotin-LEDAPVDPDNEAYEM

asyn_113-127_117A [23] = biological target: T10, asyn_113-127_117A; experiment: Ala-scan peptide ELISA, row H, run 2
asyn_113-127_118A [24] = biological target: T5, asyn_113-127_118A; experiment: Ala-scan peptide ELISA, row H, run 2
asyn_113-127_119A [25] = biological target: T6, asyn_113-127_119A; experiment: Ala-scan peptide ELISA, row H, run 2
asyn_113-127_120A [26] = biological target: T11, asyn_113-127_120A; experiment: Ala-scan peptide ELISA, row H, run 2
asyn_113-127_121A = biological target: T15, asyn_113-127_121A (human); experiment: Ala-scan peptide ELISA, row H, run 2
T15 construct: substitution is already in the entry; also called pep10
T15 peptide: Biotin-LEDMPVDPANEAYEM

asyn_113-127_122A [27] = biological target: T12, asyn_113-127_122A; experiment: Ala-scan peptide ELISA, row H, run 2
asyn_113-127_123A [28] = biological target: T13, asyn_113-127_123A; experiment: Ala-scan peptide ELISA, row H, run 2
asyn_113-127_124G = biological target: T16, asyn_113-127_124G (human); experiment: Ala-scan peptide ELISA, row H, run 2
T16 construct: substitution is already in the entry; also called pep13
T16 peptide: Biotin-LEDMPVDPDNEGYEM

asyn_113-127_124P = biological target: T17, asyn_113-127_124P (human); experiment: Ala-scan peptide ELISA, row H, run 2
T17 construct: substitution is already in the entry; also called pep14
T17 peptide: Biotin-LEDMPVDPDNEPYEM

asyn_113-127_125A [29] = biological target: T7, asyn_113-127_125A; experiment: Ala-scan peptide ELISA, row H, run 2
asyn_113-127_126A [30] = biological target: T8, asyn_113-127_126A; experiment: Ala-scan peptide ELISA, row H, run 2
asyn_113-127_127A = biological target: T18, asyn_113-127_127A (human); experiment: Ala-scan peptide ELISA, row H, run 2
T18 construct: substitution is already in the entry; also called pep17
T18 peptide: Biotin-LEDMPVDPDNEAYEA

[31] = biological target: T9, biotinylated human alpha-synuclein; experiment: Ala-scan peptide ELISA, row H, run 2

A450 (asyn_113-127 [1]): 0.501 OD
A450 (asyn_113-127_113A [2]): 0.462 OD
A450 (asyn_113-127_114A [3]): 0.471 OD
A450 (asyn_113-127_115A [4]): 0.486 OD
A450 (asyn_113-127_118A [5]): 0.509 OD
A450 (asyn_113-127_119A [6]): 0.058 OD
A450 (asyn_113-127_125A [7]): 0.049 OD
A450 (asyn_113-127_126A [8]): 0.35 OD
A450 [9]: 0.711 OD
A450 (asyn_113-127 [10]): 0.089 OD
A450 (asyn_113-127_115A [11]): 0.057 OD
A450 (asyn_113-127_117A [12]): 0.108 OD
A450 (asyn_113-127_118A [13]): 0.109 OD
A450 (asyn_113-127_120A [14]): 0.072 OD
A450 (asyn_113-127_122A [15]): 0.048 OD
A450 (asyn_113-127_123A [16]): 0.103 OD
A450 (asyn_113-127_126A [17]): 0.101 OD
A450 [18]: 0.152 OD
A450 (asyn_113-127 [19]): 0.064 OD
A450 (asyn_113-127_113A [20]): 0.066 OD
A450 (asyn_113-127_114A [21]): 0.066 OD
A450 (asyn_113-127_115A [22]): 0.052 OD
A450 (asyn_113-127_116A): 0.073 OD
A450 (asyn_113-127_117A [23]): 0.083 OD
A450 (asyn_113-127_118A [24]): 0.071 OD
A450 (asyn_113-127_119A [25]): 0.046 OD
A450 (asyn_113-127_120A [26]): 0.057 OD
A450 (asyn_113-127_121A): 0.069 OD
A450 (asyn_113-127_122A [27]): 0.051 OD
A450 (asyn_113-127_123A [28]): 0.068 OD
A450 (asyn_113-127_124G): 0.066 OD
A450 (asyn_113-127_124P): 0.046 OD
A450 (asyn_113-127_125A [29]): 0.049 OD
A450 (asyn_113-127_126A [30]): 0.073 OD
A450 (asyn_113-127_127A): 0.066 OD
A450 [31]: 0.087 OD
B1: 20H4 (antibody, rat IgG2b, V domains shown)
VH: AVQLVESGGGLVQPKESLKISCAASGFTFSNAAMYWVRQAPGKGLELLARIRTKPNNYATYHADSVKGRFTISRDDSQSMVYLHMGNLKTEDTAMYYCTADMATGDYWGPGVMVTVSS
VL: DIQMTQSPPVLSVSVGDRVTLSCKASQNINKNLDWYQQKHGEAPKPLIYSTNNLQTGVPSRFSGSGSGTDYTLTISSLQPEDVATYYCYQYKSAWTFGGGTKLELR
notes: also called clone 20H4; rat 20H4
